Assays:
[1] = test system: internally quenched peptide probe with CM 7047 (PYGL, SEQ ID NO: 103)
[2] = test system: internally quenched peptide probe with CM 7054 (PKGL, SEQ ID NO: 108)
[3] = test system: internally quenched peptide probe with CM 7049 (PFGL, SEQ ID NO: 104)
[4] = test system: internally quenched peptide probe with CM 7053 (PQGL, SEQ ID NO: 9)
[5] = test system: internally quenched peptide probe with CM PWGLRS (SEQ ID NO: 181)
[6] = test system: internally quenched peptide probe with CM 7052 (PLGL, SEQ ID NO: 107)
[7] = test system: internally quenched peptide probe with CM 7055 (PHGL, SEQ ID NO: 10)
[8] = test system: internally quenched peptide probe with CM 7051 (PMGL, SEQ ID NO: 106)
[9] = test system: internally quenched peptide probe with CM PMGLKS (SEQ ID NO: 5)
[10] = test system: internally quenched peptide probe with CM RSPWGL (SEQ ID NO: 182)
[11] = test system: internally quenched peptide probe with CM APMGLKH (SEQ ID NO: 7)
[12] = test system: internally quenched peptide probe with CM 7041 (PWGL, SEQ ID NO: 100)
[13] = test system: internally quenched peptide probe with CM PMGLK (SEQ ID NO: 64)
[14] = test system: internally quenched peptide probe with CM 7056 (PEGL, SEQ ID NO: 11)
[15] = test system: internally quenched peptide probe with CM 7050 (PRGL, SEQ ID NO: 105)

Chain of human recombinant MMP9 (R&D Systems, catalog No: 911-MP) (chain, as listed by the source): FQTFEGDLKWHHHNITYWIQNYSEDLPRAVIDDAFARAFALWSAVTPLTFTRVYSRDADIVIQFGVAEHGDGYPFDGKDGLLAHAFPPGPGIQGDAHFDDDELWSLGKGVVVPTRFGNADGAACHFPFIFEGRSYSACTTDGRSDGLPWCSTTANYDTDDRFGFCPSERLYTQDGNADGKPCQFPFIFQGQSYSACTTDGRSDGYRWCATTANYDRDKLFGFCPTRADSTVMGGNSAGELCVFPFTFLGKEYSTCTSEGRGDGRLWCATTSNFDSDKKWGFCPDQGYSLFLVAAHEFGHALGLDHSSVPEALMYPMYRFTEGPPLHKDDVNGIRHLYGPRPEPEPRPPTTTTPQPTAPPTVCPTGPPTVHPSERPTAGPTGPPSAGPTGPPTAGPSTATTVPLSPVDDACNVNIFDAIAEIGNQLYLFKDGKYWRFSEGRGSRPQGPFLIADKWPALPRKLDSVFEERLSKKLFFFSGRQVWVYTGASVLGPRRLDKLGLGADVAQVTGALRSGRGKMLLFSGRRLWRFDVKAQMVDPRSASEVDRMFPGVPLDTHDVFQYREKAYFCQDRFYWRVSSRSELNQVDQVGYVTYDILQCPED

## human recombinant MMP9 (R&D Systems, catalog No: 911-MP)
[1]
  kcat/KM (M^-1 s^-1): greater than 5×10^2 M^-1 s^-1
  stated: cleaved (kcat/Km, M-1s-1, bar on a log axis): PYGL, MMP9 bar ends at about the 1x10^4 tick
[2]
  stated: cleaved (kcat/Km, M-1s-1, bar on a log axis): PKGL, MMP9 bar ends just above the 1x10^4 tick
[3]
  kcat/KM (M^-1 s^-1): greater than 5×10^2 M^-1 s^-1
  stated: cleaved (kcat/Km, M-1s-1, bar on a log axis): PFGL, MMP9 bar ends at about the 1x10^4 tick
[4]
  stated: cleaved (kcat/Km, M-1s-1, bar on a log axis): PQGL, MMP9 bar ends between 1x10^3 and 1x10^4
[5]
  Probe Cleavage (kcat/KM): 150000 M⁻¹ s⁻¹
  Probe Cleavage (pM/s): 3830 pM/s
[6]
  stated: cleaved (kcat/Km, M-1s-1, bar on a log axis): PLGL, MMP9 bar ends between 1x10^4 and 1x10^5
[7]
  stated: cleaved (kcat/Km, M-1s-1, bar on a log axis): PHGL, MMP9 bar ends between 1x10^3 and 1x10^4
[8]
  stated: cleaved (kcat/Km, M-1s-1, bar on a log axis): PMGL, MMP9 bar ends between 1x10^3 and 1x10^4, close under 1x10^4
[9]
  Probe Cleavage (kcat/KM): 3.1e+06 M⁻¹ s⁻¹
  Probe Cleavage (pM/s): 133000 pM/s
[10]
  Probe Cleavage (kcat/KM): 870000 M⁻¹ s⁻¹
  Probe Cleavage (pM/s): 25500 pM/s
[11]
  Probe Cleavage (kcat/KM): 2.8e+06 M⁻¹ s⁻¹
  Probe Cleavage (pM/s): 115000 pM/s
[12]
  stated: cleaved (kcat/Km, M-1s-1, bar on a log axis): PWGL, MMP9 bar ends just above the 1x10^4 tick
[13]
  Probe Cleavage (kcat/KM): 140000 M⁻¹ s⁻¹
  Probe Cleavage (pM/s): 6080 pM/s
[14]
  kcat/KM (M^-1 s^-1): greater than 5×10^2 M^-1 s^-1
  stated: cleaved (kcat/Km, M-1s-1, bar on a log axis): PEGL, MMP9 bar ends between 1x10^2 and 1x10^3, just under the 1x10^3 tick
[15]
  stated: cleaved (kcat/Km, M-1s-1, bar on a log axis): PRGL, MMP9 bar ends between 1x10^4 and 1x10^5
